Results taken from article PMC3392929.

Molecular target: Purified β-actin (Cytoskeleton) (UniProt P60709)
Assay: SPR

How did the Kd turn out when “GST-tagged Myo1c neck plus tail (domain or fragment)” was run?
Its Kd is < 2000 nM.
